{
  "source": "paper PMC4115224",
  "about": "“Real-Time Interaction between TBP and the TATA Box of the Human Triosephosphate Isomerase Gene Promoter in the Norm and Pathology”",
  "key": {"[1]": {"biological_target": "T1, TATA-binding protein (TBP) (human, UniProt P20226 1-339)", "T1 sequence (P20226 whole entry)": "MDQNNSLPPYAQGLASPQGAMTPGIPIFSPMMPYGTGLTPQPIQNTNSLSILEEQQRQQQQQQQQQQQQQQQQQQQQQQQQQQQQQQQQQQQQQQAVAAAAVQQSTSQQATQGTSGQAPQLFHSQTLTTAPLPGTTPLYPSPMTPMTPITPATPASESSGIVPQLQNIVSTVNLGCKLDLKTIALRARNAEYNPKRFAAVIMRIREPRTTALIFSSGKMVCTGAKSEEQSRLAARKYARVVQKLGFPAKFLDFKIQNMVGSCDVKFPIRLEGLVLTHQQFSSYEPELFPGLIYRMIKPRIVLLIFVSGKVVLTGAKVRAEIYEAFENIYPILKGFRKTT", "test": "stopped-flow FRET; kon (1.1 ± 0.1)e6 M-1 s-1; koff (2.8 ± 0.1)e-3 s-1; KA 3.7e8 M-1; 25 C; 25 C; 0.1 uM DNA duplex; TBP 0.1-2 uM (T allele) or 0.4-4 uM (G allele); buffer, salt and pH not given in the material", "details": "protein: recombinant; label: Cy3/Cy5 FRET pair at the duplex ends"}, "[2]": {"biological_target": "T1, TATA-binding protein (TBP)", "test": "stopped-flow FRET; kon (0.2 ± 0.1)e6 M-1 s-1; koff (8.9 ± 1.2)e-2 s-1; KA 2.3e6 M-1; 25 C; 25 C; 0.1 uM DNA duplex; TBP 0.1-2 uM (T allele) or 0.4-4 uM (G allele); buffer, salt and pH not given in the material", "details": "protein: recombinant; label: Cy3/Cy5 FRET pair at the duplex ends"}},
  "data": [
    {"binder": "TPI TATA box, wild type (T allele) (dsDNA) DNA 1: GCTCTATATAAGTGG DNA 2: CCACTTATATAGAGC", "values": [
      {"measurement": "Kd", "setting": "[1]", "value": 2.7, "unit": "nM"}
    ]},
    {"binder": "TPI TATA box, -24T>G SNP (G allele) (dsDNA) DNA 1: GCTCTATAGAAGTGG DNA 2: CCACTTCTATAGAGC", "values": [
      {"measurement": "Kd", "setting": "[2]", "value": 400, "unit": "nM"}
    ]}
  ]
}
